Patent publication US20240239872A1 (SHANDONG AGRICULTURAL UNIVERSITY, published 2024)

Experiments:
[1] = target: T1, PVY in juice of infected plants (coat protein on virus) (Potato virus Y); assay: dot-ELISA on diluted juice of PVY-infected plants
[2] = target: T1, PVY in juice of infected plants (coat …); assay: indirect ELISA (antigen not stated)

Row | Binder | dilution of PVY-infected juice still detected [1] | Titer [2] [reciprocal dilution]
1 | monoclonal antibody M2 (antibody, V domains shown, also called MAb M2) VH: EVQLVESGGGLVQPKGSLKLSCAASDFTFNTHSMNWVRQAPGKVLEWIARIRSQSNNYATYYADSVKDRFTISRDDSQNMFYLQMNNLKTEDTAMYYCAGDYYGPFAYWGQGTLVAVSA VL: DVLMTQTPLSLPVSLGDQASISCRSGQSLVHSNGNTYLHWYLQKPGQSPKLLIYKVSNRFSGVPDRFSGSGSGTDFTLKISRVEAEDLGVYFCSQSTHVPWTFGGGTKLEIK | 640 times (fold dilution) | 243000
2 | monoclonal antibody N1 (antibody, V domains shown, also called MAb N1) VH: EVQLVESGGGLVQPGGSLKLSCAASGFTFSSYGMSWVRQSPDKRLEWVATINNNGGSTYYPDSVKGRFTISRDNAKNTLYLQMSSLKSEDTAVYYCARDAAFDCWGQGTTLTVSS VL: DIVMSQSPSSLAVSAGEKVTMSCKSSQSLLNSRTRKNYLAWYQQKPGQSPKLLIYWASTRESGVPDRFTGSGSGTDFTLTISSVQAEDLAVYYCKQSYNLFTFGSGTKLEIK | 10200 times (fold dilution) | 243000
3 | monoclonal antibody M1 (antibody, V domains shown, also called MAb M1) VH: QVQLQQSGPELVRPGASVKMSCKTSGYPFSTYWMHWVKQRPGQGLEWIGMIKPSNSETSLNQKFKDKATLNVDKSSNTAYMQLNSLTSEDSGVYYCARAGDSWGQGTTLTVSS VL: not shown | 5120 times (fold dilution) | 243000
4 | monoclonal antibody M3 (antibody, V domains shown, also called MAb M3) VH: EVILVESGGGLVKPGGSLRLSCAASGFTFSSHPLSWVRQSPDKRLEWVASISSGGRYTYYPDSVKGRLTISRDNAKNILYLHMNSLRSEDTAMYYCARRGSTATAWFAYWGQGTLVTVSA VL: DIALTQSPASLAVSLGQRATISCKASQSVDYDGDSYMSWYQQKPGQPPKLLIYGASNLESGIPARFSGSGSGTDFTLNIHPVEEEDAATYYCQQSNEDLPTFGGGTKLEIK | 5120 times (fold dilution) | 243000
5 | monoclonal antibody C1 (antibody, V domains shown, also called MAb C1) VH: EVQLQQSGAELVRPGALVKLSCKASGFNIKDYYMHWVKQRPEEGLEWIGWIDPENGNTIYDPKFQGKASITADTSSNTVRLQLSSLTSEDTAVYYCARERGAYWGQGTLVTVSA VL: QIVLTQSPAIMSASPGEKVTMTCSASSSVSYMYWFQQKPGSSPRLLIYDTSNLASGVPVRFSGSGSGTSYSLTISRMEAEDAATFYCQQWSSYPLTFGAGTKLELK | 5120 times (fold dilution) | 243000
